Blank lines part the entries; values can stand above or below the molecule they belong to.
Columns and labels:
[1] = target: His-tag-fused PHR domain of CraCRY (M1-A489) (C. reinhardtii); test: SEC; lit (blue light); inline SEC of the SAXS runs, Superdex 200, 50 mM HEPES pH 7.4, 150 mM NaCl, 5% glycerol, 25 °C, 2 to 10 mg/mL
[2] = target: His-tag-fused full-length wild-type CraCRY (C. reinhardtii animal-like cryptochrome) (C. reinhardtii); test: as above
[3] = target: Strep-tag-fused CraCRY::mCitrine (C. reinhardtii); test: single-molecule pull-down (TIRF colocalisation with photobleaching step counting); lit (blue light, 450 nm): Strep-tag-fused CraCRY::mCitrine tethered to the glass slide by streptavidin as bait, ROC15(GARP)::mCherry as prey
[4] = target: Strep-tag-fused CraCRY::mCitrine (C. reinhardtii); test: single-molecule photobleaching step counting; lit (blue light): photobleaching steps of CraCRY::mCitrine protein complexes counted by TIRF microscopy
[5] = target: Strep-tag-fused CraCRY::mCitrine (C. reinhardtii); test: single-molecule pull-down (TIRF colocalisation with photobleaching step counting); lit (blue light, 450 nm): Strep-tag-fused CraCRY::mCitrine tethered to the glass slide by streptavidin as bait, ROC15(GARP)::mCherry as prey; remark: listed apart in the source

Molecule: His-tag-fused PHR domain of CraCRY (M1-A489) (domain or fragment)
stoichiometry N [1]: 2

Molecule: Strep-tag-fused CraCRY::mCitrine (natural protein)
dimer fraction without colocalized ROC15 [3]: 15.5%
population of two-step bleaching [4]: 25.1%

The next lines start with the values.

stoichiometry N [2]: 2
Molecule: His-tag-fused full-length wild-type CraCRY (C. reinhardtii animal-like cryptochrome) (natural protein)

fraction of interacting CraCRY (colocalization) [5]: 23.3%
percentage of interaction between ROC15 and CraCRY monomers [5]: 25.1%
B1: ROC15(GARP)::mCherry (domain or fragment)
chain: MGEEYADDGTTRAVKRPRLVWTPQLHRKFESAVIKLGEDKAVPKTIMQEMNIDGLTRENVASHLQKYRM

Source: publication PMC9579160
